Laboratory results published in patent US20170073406A1.

How the values were obtained:
[1] = molecular target: human GARP-proTGF-β1 (membrane-bound GARP with proTGF-β1, on transfected cells) (human) (UniProt Q14392); assay: cell-based or functional assay
[2] = molecular target: human LTBP1 plus proTGF-β1, expressed by transiently transfected SW480 or HEK293 cells (human) (UniProt Q14766); assay: cell-based or functional assay
[3] = molecular target: biotinylated His-tagged TGF-β1 LAP C4S (Homo sapiens (Human)) (UniProt P01137); assay: ELISA, neutravidin plate with biotinylated His-tagged TGF-β1 LAP C4S; antibody dilution 1:1,000; fluorescent secondary detection
[4] = molecular target: LTBP1-proTGFβ1 (protein complex of the ELISA of Example 35) (UniProt Q14766); assay: ELISA with increasing concentrations of MAB246
[5] = molecular target: TGF-β1 LAP complexed with sGARP (Homo sapiens (Human)) (UniProt Q14392); assay: ELISA with increasing concentrations of MAB246
[6] = molecular target: proTGF-β1 complexed with sGARP (Homo sapiens (Human)) (UniProt Q14392); assay: ELISA with increasing concentrations of MAB246
[7] = molecular target: human GARP-proTGF-β1 (membrane-bound GARP with proTGF-β1, on transfected cells) (human) (UniProt Q14392); assay: flow cytometry on 300.19 cells stably expressing the complex; MFI minus control 300.19 cells; one-site binding fit
[8] = molecular target: human GARP-TGF-β1 LAP (membrane-bound GARP with TGF-β1 LAP, on 300.19 cells) (human) (UniProt Q14392); assay: as above
[9] = molecular target: biotinylated His-tagged TGF-β1 LAP C4S (Homo sapiens (Human)) (UniProt P01137); assay: ELISA, neutravidin plate with biotinylated His-tagged TGF-β1 LAP C4S; antibody dilution 1:5,000; fluorescent secondary detection
[10] = molecular target: biotinylated His-tagged TGF-β1 LAP C4S (Homo sapiens (Human)) (UniProt P01137); assay: ELISA, neutravidin plate with biotinylated His-tagged TGF-β1 LAP C4S; antibody dilution 1:10,000; fluorescent secondary detection

Sequence of human LTBP1 plus proTGF-β1, expressed by transiently transfected SW480 or HEK293 cells (human) (Q14766 347-1721 limits assumed, chain 1 of 2): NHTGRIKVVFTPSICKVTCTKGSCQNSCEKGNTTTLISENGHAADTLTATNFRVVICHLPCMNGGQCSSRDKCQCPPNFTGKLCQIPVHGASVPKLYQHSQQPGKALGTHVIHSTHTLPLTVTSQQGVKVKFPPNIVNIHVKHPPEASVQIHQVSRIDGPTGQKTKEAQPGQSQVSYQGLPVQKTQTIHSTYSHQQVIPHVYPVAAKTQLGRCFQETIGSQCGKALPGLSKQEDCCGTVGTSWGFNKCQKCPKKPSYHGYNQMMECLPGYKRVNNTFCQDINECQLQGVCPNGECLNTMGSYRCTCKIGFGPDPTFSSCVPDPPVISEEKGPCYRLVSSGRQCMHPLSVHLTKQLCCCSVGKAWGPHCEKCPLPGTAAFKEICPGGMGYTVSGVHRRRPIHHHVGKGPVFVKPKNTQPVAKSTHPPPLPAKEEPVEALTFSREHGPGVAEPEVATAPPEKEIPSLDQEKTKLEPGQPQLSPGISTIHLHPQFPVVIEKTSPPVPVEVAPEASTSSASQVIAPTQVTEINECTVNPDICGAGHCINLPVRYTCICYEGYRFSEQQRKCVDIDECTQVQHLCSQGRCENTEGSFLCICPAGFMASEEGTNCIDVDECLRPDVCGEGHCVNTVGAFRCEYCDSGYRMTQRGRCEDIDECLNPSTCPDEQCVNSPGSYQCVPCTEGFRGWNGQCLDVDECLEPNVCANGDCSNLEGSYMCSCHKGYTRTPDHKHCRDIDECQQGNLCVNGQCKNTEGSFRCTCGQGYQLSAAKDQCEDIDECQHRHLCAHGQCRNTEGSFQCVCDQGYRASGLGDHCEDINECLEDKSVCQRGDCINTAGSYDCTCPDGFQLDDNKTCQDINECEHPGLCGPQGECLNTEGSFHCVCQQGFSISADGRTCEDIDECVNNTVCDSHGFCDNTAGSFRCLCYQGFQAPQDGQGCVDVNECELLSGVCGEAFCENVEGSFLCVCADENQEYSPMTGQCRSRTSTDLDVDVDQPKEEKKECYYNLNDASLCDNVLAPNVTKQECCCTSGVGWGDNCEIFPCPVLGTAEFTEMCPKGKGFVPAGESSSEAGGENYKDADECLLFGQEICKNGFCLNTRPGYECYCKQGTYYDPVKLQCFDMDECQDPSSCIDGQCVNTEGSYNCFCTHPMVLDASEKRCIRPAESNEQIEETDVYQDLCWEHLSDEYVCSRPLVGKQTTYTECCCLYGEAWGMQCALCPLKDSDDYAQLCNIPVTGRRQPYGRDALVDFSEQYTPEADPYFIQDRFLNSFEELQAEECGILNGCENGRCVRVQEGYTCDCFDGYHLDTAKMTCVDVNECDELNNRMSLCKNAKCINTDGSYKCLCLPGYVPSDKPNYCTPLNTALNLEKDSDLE
Sequence of human LTBP1 plus proTGF-β1, expressed by transiently transfected SW480 or HEK293 cells (human) (chain, as listed by the source limits assumed, chain 2 of 2): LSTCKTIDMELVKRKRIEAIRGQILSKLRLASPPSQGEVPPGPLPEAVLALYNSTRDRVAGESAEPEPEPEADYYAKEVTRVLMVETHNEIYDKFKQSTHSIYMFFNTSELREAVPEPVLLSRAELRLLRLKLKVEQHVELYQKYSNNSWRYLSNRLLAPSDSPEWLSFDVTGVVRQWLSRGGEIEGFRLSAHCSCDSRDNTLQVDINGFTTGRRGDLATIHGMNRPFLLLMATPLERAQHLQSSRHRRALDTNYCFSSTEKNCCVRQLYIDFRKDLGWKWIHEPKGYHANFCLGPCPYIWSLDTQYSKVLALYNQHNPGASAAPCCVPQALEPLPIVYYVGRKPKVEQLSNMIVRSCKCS
Sequence of human GARP-proTGF-β1 (membrane-bound GARP with proTGF-β1, on transfected cells) (human) (Q14392 20-662 limits assumed, chain 1 of 2): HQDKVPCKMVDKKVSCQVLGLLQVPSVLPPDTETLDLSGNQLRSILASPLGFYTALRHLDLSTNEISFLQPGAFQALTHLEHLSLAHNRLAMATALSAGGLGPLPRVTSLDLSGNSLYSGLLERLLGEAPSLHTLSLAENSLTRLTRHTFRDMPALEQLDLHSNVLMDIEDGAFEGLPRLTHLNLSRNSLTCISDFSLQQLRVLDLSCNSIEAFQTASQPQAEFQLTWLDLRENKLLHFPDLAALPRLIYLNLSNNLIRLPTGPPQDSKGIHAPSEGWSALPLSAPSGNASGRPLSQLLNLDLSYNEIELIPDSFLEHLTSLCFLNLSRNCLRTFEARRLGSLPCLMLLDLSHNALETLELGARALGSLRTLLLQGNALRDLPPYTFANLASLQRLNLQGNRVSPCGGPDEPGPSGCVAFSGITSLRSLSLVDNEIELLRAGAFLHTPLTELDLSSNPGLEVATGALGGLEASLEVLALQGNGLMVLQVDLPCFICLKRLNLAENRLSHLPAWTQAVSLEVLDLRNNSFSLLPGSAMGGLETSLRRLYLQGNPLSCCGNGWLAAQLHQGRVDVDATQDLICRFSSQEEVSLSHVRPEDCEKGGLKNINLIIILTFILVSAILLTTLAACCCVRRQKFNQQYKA
Sequence of biotinylated His-tagged TGF-β1 LAP C4S (Homo sapiens (Human)) (P01137 other isoform, or with tags, fused parts or gaps limits assumed): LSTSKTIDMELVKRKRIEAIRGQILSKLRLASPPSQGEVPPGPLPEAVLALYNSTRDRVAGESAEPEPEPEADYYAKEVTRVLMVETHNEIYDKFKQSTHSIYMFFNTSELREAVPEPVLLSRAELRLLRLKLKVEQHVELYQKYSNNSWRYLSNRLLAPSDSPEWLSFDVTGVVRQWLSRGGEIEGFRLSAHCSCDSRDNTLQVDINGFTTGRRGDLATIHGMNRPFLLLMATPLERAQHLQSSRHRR
Sequence of human GARP-TGF-β1 LAP (membrane-bound GARP with TGF-β1 LAP, on 300.19 cells) (human) (Q14392 20-662 limits assumed, chain 1 of 2): as the sequence (Q14392 20-662 limits assumed, chain 1 of 2) above
Sequence of human GARP-TGF-β1 LAP (membrane-bound GARP with TGF-β1 LAP, on 300.19 cells) (human) (chain, as listed by the source limits assumed, chain 2 of 2): as the sequence (P01137 other isoform, or with tags, fused parts or gaps limits assumed) above, with S4C counted along it
Sequence of LTBP1-proTGFβ1 (protein complex of the ELISA of Example 35) (Q14766 347-1721 limits assumed, chain 1 of 2): as the sequence (Q14766 347-1721 limits assumed, chain 1 of 2) above
Sequence of TGF-β1 LAP complexed with sGARP (Homo sapiens (Human)) (Q14392 18-627 limits assumed, chain 1 of 2): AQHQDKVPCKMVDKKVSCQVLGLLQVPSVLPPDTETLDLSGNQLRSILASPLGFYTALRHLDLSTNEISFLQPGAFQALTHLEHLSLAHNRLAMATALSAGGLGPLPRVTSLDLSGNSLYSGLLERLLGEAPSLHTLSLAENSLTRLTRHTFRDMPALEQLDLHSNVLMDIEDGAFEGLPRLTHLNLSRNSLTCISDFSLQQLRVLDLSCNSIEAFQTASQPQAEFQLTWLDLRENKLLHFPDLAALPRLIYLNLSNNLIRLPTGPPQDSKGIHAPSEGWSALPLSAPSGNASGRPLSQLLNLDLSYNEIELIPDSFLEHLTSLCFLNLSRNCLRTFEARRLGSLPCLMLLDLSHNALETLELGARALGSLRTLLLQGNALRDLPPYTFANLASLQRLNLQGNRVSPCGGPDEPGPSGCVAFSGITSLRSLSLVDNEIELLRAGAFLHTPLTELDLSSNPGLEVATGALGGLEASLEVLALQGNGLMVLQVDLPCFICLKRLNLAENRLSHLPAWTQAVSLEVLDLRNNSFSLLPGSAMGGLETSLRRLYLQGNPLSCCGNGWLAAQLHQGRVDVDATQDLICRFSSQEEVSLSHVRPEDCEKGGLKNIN
Sequence of TGF-β1 LAP complexed with sGARP (Homo sapiens (Human)) (chain, as listed by the source limits assumed, chain 2 of 2): as the sequence (P01137 other isoform, or with tags, fused parts or gaps limits assumed) above, with S4C counted along it
Sequence of proTGF-β1 complexed with sGARP (Homo sapiens (Human)) (Q14392 18-627 limits assumed, chain 1 of 2): as the sequence (Q14392 18-627 limits assumed, chain 1 of 2) above

## MAB246 (R&D Systems, Minneapolis, Minn.), mouse IgG1 anti-TGF-β1 LAP antibody, clone 27235
[1]
  reporter activity (TMLC luciferase, RLU), 20 or 50 µg/ml MAB246: < 2 fold
[2]
  RLUs (TMLC luciferase), with αvβ6-expressing cells and 20 or 50 µg/ml MAB246: 3.5 fold
  reporter activity (TMLC luciferase, RLU), 20 µg/ml MAB246: 2 fold
  reporter activity (TMLC luciferase, RLU), 50 µg/ml MAB246: > 2.5 fold
[3]
  RFU: 26800 RFU
[4]
  Kd: 240 pM
[5]
  Kd: 140 pM
[6]
  Kd: 910 pM
[7]
  Kd: 35.1 µg/mL
[8]
  Kd: 0.08 µg/mL
[9]
  RFU: 24900 RFU
[10]
  RFU: 18800 RFU

## αvβ6 integrin (on cells, e.g. SW480-β6 cells) (from UniProt P06756 31-1048; P18564 22-788) (receptor)
[2]
  RLUs (TMLC luciferase), no antibody: 2.5 fold

## 9016.2 (mouse monoclonal anti-TGF-β LAP antibody, Abcam, Cambridge, UK)
[3]
  RFU: 14600 RFU
[9]
  RFU: 4540 RFU
[10]
  RFU: 3310 RFU

## MAB2463 (R&D Systems, Minneapolis, Minn.), mouse IgG1 anti-TGF-β1 LAP antibody, clone 27232
[3]
  RFU: 57500 RFU
[7]
  Kd: 0.19 µg/mL
[8]
  Kd: 0.11 µg/mL
[9]
  RFU: 42100 RFU
[10]
  RFU: 32000 RFU
